# Assay results taken from PMC11538506.
# Biological target: DDX3X WT (MBP) (UniProt O00571 1-662)
# Test: time-resolved fluorescence anisotropy
# Sequence of DDX3X WT (MBP) (O00571 whole entry): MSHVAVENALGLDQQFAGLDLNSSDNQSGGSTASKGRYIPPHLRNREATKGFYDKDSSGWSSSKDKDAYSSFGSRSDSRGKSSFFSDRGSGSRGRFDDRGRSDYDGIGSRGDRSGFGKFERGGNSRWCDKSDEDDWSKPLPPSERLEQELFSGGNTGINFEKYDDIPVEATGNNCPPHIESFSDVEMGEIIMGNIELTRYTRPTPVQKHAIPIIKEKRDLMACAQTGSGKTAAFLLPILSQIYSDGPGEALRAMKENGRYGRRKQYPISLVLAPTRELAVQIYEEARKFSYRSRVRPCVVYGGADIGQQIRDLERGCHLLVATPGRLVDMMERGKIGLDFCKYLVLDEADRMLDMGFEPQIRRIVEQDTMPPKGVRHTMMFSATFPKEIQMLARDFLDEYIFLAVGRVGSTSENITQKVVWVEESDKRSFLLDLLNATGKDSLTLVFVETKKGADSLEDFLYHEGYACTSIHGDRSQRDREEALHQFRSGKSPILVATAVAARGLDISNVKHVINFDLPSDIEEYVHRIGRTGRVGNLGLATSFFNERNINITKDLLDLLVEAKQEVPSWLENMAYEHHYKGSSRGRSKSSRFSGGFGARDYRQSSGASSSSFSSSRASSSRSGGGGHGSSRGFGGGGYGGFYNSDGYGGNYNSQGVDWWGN
binder,measurement,value
dsRNA anisotropy probe (18/42-mer) (dsRNA) RNA 1: ACCGCUGCCGUCGCUCCG RNA 2: UUUUUUUUUUUUUUUUUUUUUUUUCGGAGCGACGGCAGCGGU,binding result,binds
